Experiments:
[1] = target: C. elegans Vps4^E219Q (as used alone in light scattering and EM) (C. elegans); test: SEC-MALS
[2] = target: C. elegans Vps32 (full length, wild type) (C. elegans); test: cryo-EM imaging
[3] = target: C. elegans Vps32^E94K (C. elegans); test: SEC
negative staining EM = target: the molecule itself; test: negative staining EM

“C. elegans Vps4^E219Q (as used alone in light scattering and EM) (enzyme)” showed a stoichiometry N [1] of 6.

Molecule “C. elegans Vps32 (full length, wild type) (natural protein)” has a stoichiometry N [2] of 800.

With C. elegans Vps32^E94K (natural protein) the percent of the total protein in oligomers [3] was less than 5%.

B1: yeast Snf7^R52E (natural protein)
chain: MWSSLFGWTSSNAKNKESPTKAIVRLREHINLLSKKQSHLRTQITNQENEAEIFLTKGNKVMAKNALKKKKTIEQLLSKVEGTMESMEQQLFSIESANLNLETMRAMQEGAKAMKTIHSGLDIDKVDETMDEIREQVELGDEISDAISRPLITGANEVDEDELDEELDMLAQENANQETSKIVNNNVNAAPISENKVSLPSVPSNKIKQSENSVKDGEEEEDEEDEDEKALRELQAEMGL
B1: binds (negative staining EM).
